Reference: patent US20130227716A1 (University of Washington, published 2013)

T1: COI1/ASK1 complex (full-length Arabidopsis thaliana COI1 co-expressed with ASK1) (Arabidopsis thaliana, UniProt Q39255 1-160)
T1 construct: mature; Purified from Hi5 insect cells; co-purifies with Ins(1,2,4,5,6)P5 cofactor; also called COI/ASK1; untreated COI1
T1 sequence 1: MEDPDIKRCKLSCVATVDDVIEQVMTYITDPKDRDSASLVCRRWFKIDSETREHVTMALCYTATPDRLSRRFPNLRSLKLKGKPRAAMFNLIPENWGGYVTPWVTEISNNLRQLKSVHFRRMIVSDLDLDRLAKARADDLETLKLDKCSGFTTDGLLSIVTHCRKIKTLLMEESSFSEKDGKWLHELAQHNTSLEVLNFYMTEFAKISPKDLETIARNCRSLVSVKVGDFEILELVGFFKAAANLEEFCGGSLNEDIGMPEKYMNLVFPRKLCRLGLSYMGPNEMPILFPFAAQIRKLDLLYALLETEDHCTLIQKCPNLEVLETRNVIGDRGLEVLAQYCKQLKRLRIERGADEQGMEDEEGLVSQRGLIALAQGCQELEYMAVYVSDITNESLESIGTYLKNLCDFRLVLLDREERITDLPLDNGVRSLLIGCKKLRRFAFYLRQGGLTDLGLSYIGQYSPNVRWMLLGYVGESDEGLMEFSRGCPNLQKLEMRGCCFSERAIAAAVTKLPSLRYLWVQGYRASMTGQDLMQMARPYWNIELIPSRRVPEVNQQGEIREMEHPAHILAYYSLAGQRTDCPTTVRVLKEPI
T1 sequence 2: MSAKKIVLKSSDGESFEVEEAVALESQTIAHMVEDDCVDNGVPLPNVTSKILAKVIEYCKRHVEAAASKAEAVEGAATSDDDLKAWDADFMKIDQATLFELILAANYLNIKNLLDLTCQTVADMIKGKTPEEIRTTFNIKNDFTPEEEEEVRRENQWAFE

T2: Arabidopsis thaliana COI1 (Arabidopsis thaliana, UniProt O04197 1-592)
T2 construct: also called wild-type COI1
T2 sequence: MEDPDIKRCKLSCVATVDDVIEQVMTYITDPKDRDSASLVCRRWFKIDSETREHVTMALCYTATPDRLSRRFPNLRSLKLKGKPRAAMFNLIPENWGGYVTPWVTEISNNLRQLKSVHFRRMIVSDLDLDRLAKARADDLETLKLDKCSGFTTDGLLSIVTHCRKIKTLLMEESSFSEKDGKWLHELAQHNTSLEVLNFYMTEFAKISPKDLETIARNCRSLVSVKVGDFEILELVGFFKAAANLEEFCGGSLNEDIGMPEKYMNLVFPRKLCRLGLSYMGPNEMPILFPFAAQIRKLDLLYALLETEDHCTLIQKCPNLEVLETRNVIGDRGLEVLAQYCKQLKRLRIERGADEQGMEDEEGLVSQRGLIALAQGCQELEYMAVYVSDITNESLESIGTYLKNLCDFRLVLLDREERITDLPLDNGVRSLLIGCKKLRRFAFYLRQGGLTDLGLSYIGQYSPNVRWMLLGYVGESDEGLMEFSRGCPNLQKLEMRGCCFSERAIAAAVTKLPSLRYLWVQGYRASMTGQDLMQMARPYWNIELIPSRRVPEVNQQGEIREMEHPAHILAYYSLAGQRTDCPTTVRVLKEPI


Experiments:
[1] = target: COI1/ASK1 complex (full-length Arabidopsis thaliana COI1 co-expressed with ASK1) (Arabidopsis thaliana) (UniProt Q39255); assay: cell-based or functional assay
[2] = target: T1, COI1/ASK1 complex (full-length …); assay: 3H-coronatine radioligand binding with COI1/ASK1 and synthetic peptide
[3] = target: T2, Arabidopsis thaliana COI1; assay: crystal structure
Experimental: Diffraction quality crystals were obtained by the micro-seeding method at 4° C. The crystals all contained eight copies of the complex in the asymmetric unit. The data sets were collected at the Advanced Light Source in Lawrence Berkeley National Laboratory as well as the GM/CA-CAT 23 ID-B beamline at the Advanced Photon Source in Argonne National Laboratory using crystals flash-frozen in the crystallization buffers supplemented with 15-20% ethylene glycol at −170° C. Reflection data were indexed, integrated, and scaled with the HKL2000 package. All crystal structures were solved by molecular replacement using the program Phaser and the TIR1/ASK1 structure as search model. The structural models were manually built in the program O and refined using CNS and PHENIX.

[4] = target: T1, COI1/ASK1 complex (full-length …); assay: saturation radioligand binding (3H-coronatine) with COI1/ASK1 and the synthetic peptide
[5] = target: T1, COI1/ASK1 complex (full-length …); assay: cell-based or functional assay

Row | Molecule | binding result [2] | also measured
1 | full-length JAZ6 (from UniProt Q9C9E3 1-269) | – | KD of 3H-coronatine saturation binding to COI1/ASK1 in the presence of JAZ6 [1]: 0.048 µM; KD of 3H-coronatine saturation binding to the COI1/JAZ6 complex [1]: 0.068 µM
2 | LPIARRASLHRFLEKRKDRV [JAZ1 + 4 extension] | binds | –
3 | VERIARRASLHRFLEKRKDRV [JAZ1 + 5 extension from JAZ6] | no binding | –
4 | VERIARRASLHRFFAKRKDRV [JAZ6 + 5 extension] | no binding | –
5 | AAAAARRASLHRFLEKRKDRV [JAZ1 + polyA extension] | no binding | –
6 | YQKASMKRSLHSFLQKRSLRI [JAZ7 + 5 extension] | no binding | –
7 | ASK1 (other, Arabidopsis thaliana, UniProt Q39255 1-160, looked up, mature) MSAKKIVLKSSDGESFEVEEAVALESQTIAHMVEDDCVDNGVPLPNVTSKILAKVIEYCKRHVEAAASKAEAVEGAATSDDDLKAWDADFMKIDQATLFELILAANYLNIKNLLDLTCQTVADMIKGKTPEEIRTTFNIKNDFTPEEEEEVRRENQWAFE | – | binding result [3]: binds
8 | ELPIARRASLHRFLEKRKDRVTSKAPY (also called JAZ1-extension +5+PY; JAZ1 +5 extension with the six C-terminal residues added back on) [JAZ1 + 6 extension + PY motif] | binds | –
9 | ELPIARRASLHRFLEKRKDRV (also called JAZ1 +5 extension peptide; JAZ1 degron +5 peptide) [JAZ1 + 5 extension] | – | Kd [4]: 0.108 µM
10 | full-length JAZ1 (other) MSSSMECSEFVGSRRFTGKKPSFSQTCSRLSQYLKENGSFGDLSLGMACKPDVNGTLGNSRQPTTTMSLFPCEASNMDSMVQDVKPTNLFPRQPSFSSSSSSLPKEDVLKMTQTTRSVKPESQTAPLTIFYAGQVIVFNDFSAEKAKEVINLASKGTANSLAKNQTDIRSNIATIANQVPHPRKTTTQEPIQSSPTPLTELPIARRASLHRFLEKRKDRVTSKAPYQLCDPAKASSNPQTTGNMSWLGLAAEI | – | KD of 3H-coronatine saturation binding to COI1/ASK1 in the presence of JAZ1 [5]: 0.068 µM; KD of 3H-coronatine saturation binding to the COI1/JAZ1 complex [5]: 0.048 µM
11 | QQHQVVERIARRASLHRFFAKRKDRV [JAZ6 + 10 extension] | no binding | –
